Reference: PMC4571865, “Structural Basis for Antigen Recognition by Transglutaminase 2-specific Autoantibodies in Celiac Disease*” (The Journal of Biological Chemistry, 2015)

Legend:
Details in all cases: both partners purified
[1] = molecular target: T1, transglutaminase 2, wild type (UniProt P21980); assay: SPR; BIAcore 3000; anti-TG2 antibodies amine-coupled to CM5 chips (700-2300 RU); WT or mutant TG2 injected in HBS-EP (0.01 M HEPES, 0.15 M NaCl, 2 mM EDTA, 0.05% P20, pH 7.4), 40 ul/min, 25 °C; relative binding at 500 nM, kinetics from serial dilutions (15.6/156-500/5000 nM); 1:1 Langmuir model; reference cell with a non-TG2 reactive antibody
T1 construct: transglutaminase 2 (TG2); For the complex, native PAGE and SAXS the protein was incubated with 1 mM GDP (closed conformation); SASBDB SASDA28, SASDA38 and SASDA48 hold the SAXS data of TG2-GDP, the Fab and the complex; also called TG2; WT TG2

[2] = molecular target: T2, transglutaminase 2 mutant R19S (Homo sapiens (assumed; human TG2 …, UniProt P21980, R19S); assay: as above
T2 construct: transglutaminase 2 (TG2); also called TG2 R19S

[3] = molecular target: T3, transglutaminase 2 mutant K30A (Homo sapiens (assumed; human TG2 …, UniProt P21980, K30A); assay: as above
T3 construct: transglutaminase 2 (TG2); also called TG2 K30A

[4] = molecular target: T4, transglutaminase 2 mutant R116A (Homo sapiens (assumed; human TG2 …, UniProt P21980, R116A); assay: as above
T4 construct: transglutaminase 2 (TG2); also called TG2 R116A

[5] = molecular target: T1, transglutaminase 2, wild type; assay: SAXS; complex of TG2-GDP and 679-14-E06 Fab in solution, data at 9 mg/ml; molecular weight estimates and ab initio models; beamline P12, PETRA III

T3 sequence (P21980 whole entry K30A): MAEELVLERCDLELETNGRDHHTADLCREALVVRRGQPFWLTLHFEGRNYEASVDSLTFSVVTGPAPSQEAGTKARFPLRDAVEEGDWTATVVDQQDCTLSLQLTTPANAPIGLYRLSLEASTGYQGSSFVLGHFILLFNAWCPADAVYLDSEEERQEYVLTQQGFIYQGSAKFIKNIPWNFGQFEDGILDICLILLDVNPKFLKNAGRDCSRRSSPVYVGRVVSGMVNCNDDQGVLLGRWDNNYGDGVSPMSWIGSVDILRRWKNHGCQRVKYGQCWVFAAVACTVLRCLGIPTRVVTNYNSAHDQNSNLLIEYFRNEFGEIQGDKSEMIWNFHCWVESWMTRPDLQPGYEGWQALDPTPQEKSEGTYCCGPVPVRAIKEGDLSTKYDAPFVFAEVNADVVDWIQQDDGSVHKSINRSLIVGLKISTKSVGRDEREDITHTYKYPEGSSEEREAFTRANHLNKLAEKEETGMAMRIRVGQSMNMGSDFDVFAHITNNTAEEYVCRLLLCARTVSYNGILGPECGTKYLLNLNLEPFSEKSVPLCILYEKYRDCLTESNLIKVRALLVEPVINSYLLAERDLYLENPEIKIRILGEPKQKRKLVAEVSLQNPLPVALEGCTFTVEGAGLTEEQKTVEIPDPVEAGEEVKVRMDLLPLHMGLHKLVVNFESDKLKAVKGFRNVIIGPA
T1 sequence (P21980 whole entry): as the sequence (P21980 whole entry K30A) above, with A30K counted along it
T2 sequence (P21980 whole entry R19S): as the sequence (P21980 whole entry K30A) above, with R19S, A30K counted along it
T4 sequence (P21980 whole entry R116A): as the sequence (P21980 whole entry K30A) above, with A30K, R116A counted along it

Kd [1] [nM] | koff [1] [s⁻¹] | kon [1] [M⁻¹ s⁻¹] | Kd [2] [nM] | koff [2] [s⁻¹] | kon [2] [M⁻¹ s⁻¹] | Kd [3] [nM] | koff [3] [s⁻¹] | kon [3] [M⁻¹ s⁻¹] | Kd [4] [nM] | koff [4] [s⁻¹] | kon [4] [M⁻¹ s⁻¹] | stoichiometry N [5] | Binder
55.5 | 0.00474 | 85300 | 147 | 0.00525 | 35800 | 49.9 | 0.00353 | 70800 | 240 | 0.00736 | 30600 |  | anti-TG2 antibody 679-14-E06 (human IgG1) (antibody, V domains shown, constant region of human IgG1; IgG1; derived from a single gut IgA plasma cell of a celiac disease patient; Residues 142-149, 198-207, 225-231 of the heavy chain and 172-175, 228-234 of the light chain lack electron density in PDB 4ZD3 (IMGT numbering); source: HEK 293F cells, co-transfected heavy and light chain plasmids; purified from culture supernatant (protein G column)) VH: EVQLVQSGAEVKKPGESLKISCKGSGYSFTSYWIGWVRQMPGKGLEWMGIIYPGDSDTRYSPSFQGQVTISADKSISTAYLQWSSLKASDTAMYYCARPHYYDSLDAFDIWGQGTMVTVSS VL: not shown
 |  |  |  |  |  |  |  |  |  |  |  | 1 | Fab fragment of antibody 679-14-E06 (Fab, V domains shown, Electron density is missing for residues 142-149, 198-207, 225-231 of the heavy chain and 172-175, 228-234 of the light chain in PDB 4ZD3 (IMGT numbering); also called the Fab fragment; source: HEK 293F cells, co-transfected heavy and light chain plasmids; purified from culture supernatant (protein L column)) VH: EVQLVQSGAEVKKPGESLKISCKGSGYSFTSYWIGWVRQMPGKGLEWMGIIYPGDSDTRYSPSFQGQVTISADKSISTAYLQWSSLKASDTAMYYCARPHYYDSLDAFDIWGQGTMVTVSS VL: not shown
